The values that follow come from patent US20190127480A1 (Regeneron, published 2019).

What is called Kd is a measure of binding affinity in units of concentration. A higher Kd goes with weaker binding. The koff is the rate constant with which the complex falls apart. A higher koff goes with fast dissociation. By kon is commonly meant a measure of how fast the partners come together.

In assay [1] the target is T1, Soluble heterodimeric CD3 protein (hCD3-epsilon/hCD3-delta) with either a human Fc tag (hFcΔAdp/hFc) or a … (human, UniProt P07766 23-126; P04234 22-105).
T1 construct: also called hCD3ε/δ; not shown: Fc tag: human (hFcΔAdp/hFc)
Nature of the assay: SPR Biacore 25C antigen-capture. In short, it runs like this: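 Rate constants fitted to a 1:1 model, giving KD as kd/ka and dissociative half-life as ln2/(60·kd) minutes. Antibodies flowed over CD3ε/δ heterodimer captured on anti-human or anti-mouse Fc surfaces, run on a Biacore T200 at 25 °C.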
Background: In SPR one partner is held on a chip, and binding of the other changes the refractive index at the surface.

Assay [2] concerns the target T1, Soluble heterodimeric CD3 protein …. Nature of the assay: SPR Biacore 25C antibody-capture. On the procedure: Measurements were conducted on a T200 Biacore™ instrument.
(§1) Soluble heterodimeric CD3 protein (hCD3-epsilon/hCD3-delta; SEQ ID NOs:1652/1653) with either a human Fc tag (hFcΔAdp/hFc; SEQ ID NOs:1683/1684) or a mouse Fc tag (mFcΔAdp/mFc; SEQ ID NOs:1685/1686) was injected over the antibody captured surface and the binding response was recorded. Heterodimeric CD3 protein was purified using the method described in Davis et al. (US2010/0331527).
(§2) Kinetic association (kₐ) and dissociation (kd) rate constants were determined by processing and fitting the data to a 1:1 binding model using Scrubber 2.0 curve fitting software. Binding dissociation equilibrium constants (KD) and dissociative half-lives (t₁₁₂) were calculated from the kinetic rate constants as: KD (M)=kd/kₐ; and t_{1/2} (min)=(ln 2/(60*kd). NT=not tested; NB=no binding observed.

Assay [3] shares this target. Nature of the assay: SPR Biacore 25C antibody-capture, 1-arm. On the procedure:
as §1, §2

The target is the same in assay [4]. Nature of the assay: SPR Biacore 25C antigen-capture, 1-arm. On the procedure: In the antigen-capture format, heterodimeric CD3 protein was captured using a rabbit anti-mouse Fc or mouse anti-human Fc and the respective antibodies were injected over the captured antigen.
as §2

T1 sequence (P07766 23-126 limits assumed, stated change not applied, chain 1 of 2): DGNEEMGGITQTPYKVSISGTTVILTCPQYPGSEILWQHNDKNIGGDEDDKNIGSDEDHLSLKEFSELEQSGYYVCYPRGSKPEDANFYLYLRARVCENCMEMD
T1 sequence (P04234 22-105 limits assumed, stated change not applied, chain 2 of 2): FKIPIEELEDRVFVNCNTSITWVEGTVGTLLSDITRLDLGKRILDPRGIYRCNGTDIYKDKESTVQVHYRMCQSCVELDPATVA

B1: H1H5795B (antibody, human IgG1, V domains shown)
VH: EVQLVESGAEVKKPGASVKVSCKTSGYSFIGYYIHWMRQAPGQGLEWMGWINPKSGVTNYAQRFQGRVTMTRDTSISTAYMELSRLKSDDTAVYFCARMGDGAVFDFWGQGTLVTVSS
VL: DIQLTQSPSSLSASVGDRVTITCRASQRISSFLNWYQQKPGKVPKLLIYTASNLQNGVPSRFSGTGSGTDFTLTISSLQPEDFATYYCQQSYRTPLTFGGGTKVDIKR
notes: H1H: human IgG1 Fc; divalent
Take B1: in assay [1], binding was put at a Kd of 0.145 nM, the “T½” value was 50 min, the dissociation rate constant (koff) is 0.000229 s⁻¹ and the kon was determined as 1.58e+06 M⁻¹ s⁻¹. Further, in assay [2], the affinity, expressed as Kd, was 33.3 nM; the “T½” value came out at 20 min; the off-rate (koff) came out at 0.000576 s⁻¹; the kon was 17300 M⁻¹ s⁻¹.

B2: H1H5799P (antibody, human IgG1, V domains shown)
VH: QVQLVQSGAEVKKPGASVKVSCKASGYTFIGYYMHWVRQAPGQGLEWMGWINPKSGGTNYAQKFQGRVTMTGDTSISTAYMELSRLRSDDTAVFYCARMGDGAMFDYWGQGTLVTVSS
VL: DIQMTQSPSSLSASVGDRVTITCRASQRISSYLNWYQQKAGKAPKVLIYTASSLQSGVPSRFSGSGSGTDFTLTISSLQPEDFATYYCQQSYSTPLTFGGGTKVEIK
notes: H1H: human IgG1 Fc; divalent
Consider B2, for which, in assay [1], the equilibrium dissociation constant (Kd) stood at 7.85 nM, the “T½” value came out at 2 min, the off-rate (koff) was 0.00564 s⁻¹ and the association rate constant (kon) worked out at 718000 M⁻¹ s⁻¹. For the same molecule, in assay [2], the affinity, expressed as Kd, was 579 nM; the “T½” value was found to be 1 min; the koff worked out at 0.00788 s⁻¹; the association rate constant (kon) is 13600 M⁻¹ s⁻¹.

B3: H1xH7221G5 (monovalent 1-arm) (antibody, V domains shown)
VH: EVQLVESGGGLVQPGRSLRLSCAASGFTFDDYSMHWVRQAPGKGLEWVSGISWNSGSIGYADSVKGRFTISRDNAKNSLYLQMNSLRAEDTALYYCAKDGSGYGKFYYYGMDVWGQGTTVTVSS
VL: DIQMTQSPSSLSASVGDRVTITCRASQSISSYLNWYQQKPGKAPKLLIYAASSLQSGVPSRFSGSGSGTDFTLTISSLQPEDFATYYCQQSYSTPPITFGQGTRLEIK
notes: Monovalent 1-arm: second Fab removed, only the Fc portion (CH2-CH3) expressed; prefix H1xH not explained
In the case of B3, the binding result in assay [3] is recorded as “no binding”.

B4: H1H7221P (monovalent 1-arm) (antibody, human IgG1, V domains shown)
VH: EVQLVESGGGLVQPGRSLRLSCVASGFTFDDYSMHWVRQAPGKGLEWVSGISWNSGSKDYADSVKGRFTISRDNAKNSLYLQMNSLRAEDTALYYCAKYGSGYGKFYHYGLDVWGQGTTVTVSS
VL: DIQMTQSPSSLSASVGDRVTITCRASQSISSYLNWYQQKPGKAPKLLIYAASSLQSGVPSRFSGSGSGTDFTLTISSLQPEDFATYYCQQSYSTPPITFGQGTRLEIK
notes: Monovalent 1-arm: second Fab removed, only the Fc portion (CH2-CH3) expressed; human IgG1 Fc; tied by numerical identifier; also called H1H7221B
Take B4: in assay [4], binding was characterised by a dissociation constant (Kd) of 1.75 nM, the “T½” value stood at 48 min, the koff worked out at 0.000239 s⁻¹ and the kon came out at 136000 M⁻¹ s⁻¹. For the same molecule, in assay [3], the Kd is 27.5 nM, the “T½” value worked out at 40 min, the koff came out at 0.000292 s⁻¹ and the kon came to 10700 M⁻¹ s⁻¹.

B5: H1H7198P (monovalent 1-arm) (antibody, human IgG1, V domains shown)
VH: EVQLVESGGGLVQPGRSLRLSCAASGFTFADYTMHWVRQVPGKGLEWVSDISWNSGSKDYADSVKGRFTISRDNAKNFLYLQMNSLRAEDTALYYCVKYGSGYGKFYFYAMDVWGQGTTVTVSS
VL: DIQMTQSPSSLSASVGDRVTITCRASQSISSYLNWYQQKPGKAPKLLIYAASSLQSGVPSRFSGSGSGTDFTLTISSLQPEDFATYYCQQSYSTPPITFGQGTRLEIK
notes: Monovalent 1-arm: second Fab removed, only the Fc portion (CH2-CH3) expressed; human IgG1 Fc; tied by numerical identifier; also called H1H7198B
As for B5, in assay [4], binding was put at a Kd of 0.112 nM, the “T½” value amounted to 163 min, the dissociation rate constant (koff) turned out to be 7.07e-05 s⁻¹ and the on-rate (kon) was determined as 628000 M⁻¹ s⁻¹. Also, in assay [3], the dissociation constant Kd is 6.02 nM, the “T½” value was 73 min, the dissociation rate constant (koff) came to 0.000158 s⁻¹ and the kon amounted to 26300 M⁻¹ s⁻¹.

B6: H1xH7221G3 (monovalent 1-arm) (antibody, V domains shown)
VH: EVQLVESGGGLVQPGRSLRLSCAASGFTFDDYSMHWVRQAPGKGLEWVSGISWNSGSIGYADSVKGRFTISRDNAKNSLYLQMNSLRAEDTALYYCAKDGSGYGYFYYYGMDVWGQGTTVTVSS
VL: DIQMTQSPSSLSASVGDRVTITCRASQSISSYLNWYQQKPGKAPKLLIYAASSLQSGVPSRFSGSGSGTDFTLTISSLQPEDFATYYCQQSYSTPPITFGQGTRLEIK
notes: as for B3
On to B6, for which the binding result in assay [3] is on record as “no binding”.

B7: H1H5801B (antibody, human IgG1, V domains shown)
VH: QVQLVQSGGGVVQPGGSLRLSCAASGFTFDDYAMHWVRQAPGKGLEWVSLISGDGGSTYYADSVKGRFTISRDNSKNSLYLQMNSLRTEDTALYYCAKDDSSSSWYYYYYGMDVWGRGTTVTVSS
VL: DIQMTQSPSSLSASVGDRVTITCRASQRISSYLNWYQQKPGKAPKVLISVASSLQSGVPSRFSGSGSGTDFTLTISSLQPEDFASYYCQQSYNTPLTFGGGTKVEIKR
notes: H1H: human IgG1 Fc; divalent
Consider B7, for which, in assay [1], the dissociation constant Kd came out at 3.38 nM, the “T½” value came to 10 min, the dissociation rate constant (koff) worked out at 0.00112 s⁻¹ and the on-rate (kon) is 331000 M⁻¹ s⁻¹. In assay [2], the Kd stood at 246 nM, the “T½” value came out at 7 min, the koff came out at 0.00162 s⁻¹ and the kon is 6570 M⁻¹ s⁻¹.
